According to patent US20210292396A1:
Where a chain is given by its changes, count along the chain named.

Columns and labels:
Assay in all cases: cell-based or functional assay
[1] = biological target: HIV Env of isolate CNE53 (HIV)
[2] = biological target: Env of HIV isolate CH038.12 (clade BC) (HIV)
[3] = biological target: HIV Env of isolate 26191-2.48 (HIV)
[4] = biological target: Env of HIV isolate 0013095-2.11 (clade C) (HIV)
[5] = biological target: Env of HIV isolate CAP244.D3 (clade C) (HIV)
[6] = biological target: Env of HIV isolate 3415.v1.c1 (clade A) (HIV)
[7] = biological target: Env of HIV isolate 96ZM651.02 (clade C) (HIV)
[8] = biological target: Env of HIV isolate SC422.8 (clade B) (HIV)
[9] = biological target: HIV Env of isolate ZM214.15 (HIV)
[10] = biological target: HIV Env of isolate TZBD.02 (HIV)
[11] = biological target: HIV Env of isolate ZA012.29 (HIV)
[12] = biological target: Env of HIV isolate WITO.33 (clade B) (HIV)
[13] = biological target: HIV Env of isolate CNE31 (HIV)
[14] = biological target: Env of HIV isolate 001428-2.42 (clade C) (HIV)
[15] = biological target: Env of HIV isolate 16055-2.3 (clade C) (HIV)
[16] = biological target: Env of HIV isolate TH023.6 (clade AE) (HIV)
[17] = biological target: HIV Env of isolate CAP210.E8 (HIV)
[18] = biological target: Env of HIV isolate CNE21 (clade BC) (HIV)
[19] = biological target: Env of HIV isolate M02138 (clade AE) (HIV)
[20] = biological target: HIV Env of isolate DU151.02 (HIV)
[21] = biological target: HIV Env of isolate CNE7 (HIV)
[22] = biological target: HIV Env of isolate 3326.v4.c3 (HIV)
[23] = biological target: Env of HIV isolate CNE55 (clade AE) (HIV)
[24] = biological target: Env of HIV isolate 26191-2.48 (clade C) (HIV)
[25] = biological target: Env of HIV isolate MN.3 (clade B) (HIV)
[26] = biological target: Env of HIV isolate CH119.10 (clade BC) (HIV)
[27] = biological target: HIV Env of isolate CH070.1 (HIV)
[28] = biological target: HIV Env of isolate 0013095-2.11 (HIV)
[29] = biological target: 208-member cross-clade virus panel
[30] = biological target: Env of HIV isolate 3589.v1.c4 (clade AC) (HIV)
[31] = biological target: Env of HIV isolate C1080.c3 (clade AE) (HIV)
[32] = biological target: Env of HIV isolate YU2.DG (clade B) (HIV)
[33] = biological target: HIV Env of isolate 6405.v4.c34 (HIV)
[34] = biological target: Env of HIV isolate A03349M1.vrc4a (clade D) (HIV)
[35] = biological target: Env of HIV isolate BJOX009000.02.4 (clade AE) (HIV)
[36] = biological target: Env of HIV isolate RHPA.7 (clade B) (HIV)
[37] = biological target: HIV Env of isolate X1193.c1 (HIV)
[38] = biological target: HIV Env of isolate ZM197.7 (HIV)
[39] = biological target: Env of HIV isolate 6322.v4.c1 (clade C) (HIV)
[40] = biological target: Env of HIV isolate 6644.v2.c33 (clade C) (HIV)
[41] = biological target: Env of HIV isolate 0260.v5.c36 (clade A) (HIV)
[42] = biological target: Env of HIV isolate BR07.DG (clade B) (HIV)
[43] = biological target: Env of HIV isolate Q461.e2 (clade AD) (HIV)

B1: ePGT121.15.H2.L1 (antibody, V domains shown)
VH: QMQLQESGPGLVKPGETLSLTCSVSGASISSSYWSWLRETPGKGLEWIGYTHHSGDTNYAPSLKSRVHLGLHPSKNQVSLSLTSVTAADTAVYYCARTLHGRRIYGVVAFNEWFTYFYWEVWGKGTQVTVSS
VL: SDISVAPGETVRISCGGESIGSRAVQWYQHRAGQAPKLIIYNNQDRPPGIPERFSGSPDIDFGTTATLTITNVEAGDEATYYCHIWDSRRPTNWVFGGGTTLTVL
**Q.** How did the neutralization (Table 6 value) [1] turn out when B1 was run?
**A.** 0.00162

B2: ePGT121.18.17 (ePGT121.18.H17 VH and ePGT121.17.L1 VL) (antibody, V domains shown)
VH: B1 VH with H68T, L69I, H72D, W113Y, F114Y, E120P, V121T
VL: B1 VL with S14T, A32P, K37R, T71S, V95E, F96L, G98P
**Q.** Which results are given for B2?
**A.** IC50, pseudovirus neutralization [2]: 2 ng/mL; IC80, pseudovirus neutralization [3]: 0.025 µg/mL; IC50, pseudovirus neutralization [4]: 1.68 µg/mL; IC50, pseudovirus neutralization [5]: > 50 µg/mL; IC50, pseudovirus neutralization [6]: 0.062 µg/mL; IC50, pseudovirus neutralization [7]: 3 ng/mL; IC50, pseudovirus neutralization [8]: 0.016 µg/mL; IC80, pseudovirus neutralization [9]: 0.294 µg/mL; IC80, pseudovirus neutralization [10]: 0.013 µg/mL; IC80, pseudovirus neutralization [11]: 0.014 µg/mL; IC50, pseudovirus neutralization [12]: 0.015 µg/mL; IC80, pseudovirus neutralization [13]: 0.25 µg/mL; IC50, pseudovirus neutralization [14]: 4 ng/mL; IC50, pseudovirus neutralization [15]: 0.036 µg/mL; IC50, pseudovirus neutralization [16]: > 50 µg/mL; IC80, pseudovirus neutralization [17]: 0.645 µg/mL; IC50, pseudovirus neutralization [18]: 2 ng/mL; IC50, pseudovirus neutralization [19]: > 50 µg/mL; IC80, pseudovirus neutralization [1]: 0.019 µg/mL; IC80, pseudovirus neutralization [20]: 5 ng/mL; IC80, pseudovirus neutralization [21]: 0.017 µg/mL; IC80, pseudovirus neutralization [22]: 32 µg/mL; IC50, pseudovirus neutralization [23]: > 50 µg/mL; IC50, pseudovirus neutralization [24]: 0.011 µg/mL; IC50, pseudovirus neutralization [25]: 4 ng/mL; IC50, pseudovirus neutralization [26]: 0.013 µg/mL; IC80, pseudovirus neutralization [27]: 7 ng/mL; IC80, pseudovirus neutralization [28]: 13.4 µg/mL; % vs Neutralized, IC50 < 0.01 ug/ml [29]: 40%; % vs Neutralized, IC50 < 0.1 ug/ml [29]: 61%; % vs Neutralized, IC50 < 1.0 ug/ml [29]: 69%; % vs Neutralized, IC50 < 10 ug/ml [29]: 74%; % vs Neutralized, IC50 < 50 ug/ml [29]: 76%; % vs Neutralized, IC80 < 0.01 ug/ml [29]: 14.4%; % vs Neutralized, IC80 < 0.1 ug/ml [29]: 53.4%; % vs Neutralized, IC80 < 1.0 ug/ml [29]: 63.5%; % vs Neutralized, IC80 < 10 ug/ml [29]: 67.8%; % vs Neutralized, IC80 < 50 ug/ml [29]: 70.7%; Geometric Mean (IC50) [29]: 0.0202 µg/mL; Geometric Mean IC80 [29]: 0.0443 µg/mL; Median IC50 [29]: 9 ng/mL; Median IC80 [29]: 0.02 µg/mL; Total VS Neutralized, IC50 < 0.01 ug/ml (viruses of 208) [29]: 83; Total VS Neutralized, IC50 < 0.1 ug/ml (viruses of 208) [29]: 126; Total VS Neutralized, IC50 < 1.0 ug/ml (viruses of 208) [29]: 143; Total VS Neutralized, IC50 < 10 ug/ml (viruses of 208) [29]: 154; Total VS Neutralized, IC50 < 50 ug/ml (viruses of 208) [29]: 158; Total VS Neutralized, IC80 < 0.01 ug/ml (viruses of 208) [29]: 30; Total VS Neutralized, IC80 < 0.1 ug/ml (viruses of 208) [29]: 111; Total VS Neutralized, IC80 < 1.0 ug/ml (viruses of 208) [29]: 132; Total VS Neutralized, IC80 < 10 ug/ml (viruses of 208) [29]: 141; Total VS Neutralized, IC80 < 50 ug/ml (viruses of 208) [29]: 147; IC50, pseudovirus neutralization [30]: 2.73 µg/mL; IC50, pseudovirus neutralization [31]: > 50 µg/mL; IC50, pseudovirus neutralization [32]: 0.011 µg/mL; IC80, pseudovirus neutralization [33]: 0.012 µg/mL; IC50, pseudovirus neutralization [34]: 9 ng/mL; IC50, pseudovirus neutralization [35]: 0.156 µg/mL; IC50, pseudovirus neutralization [36]: 4 ng/mL; IC80, pseudovirus neutralization [37]: 0.013 µg/mL; IC80, pseudovirus neutralization [38]: > 50 µg/mL; IC50, pseudovirus neutralization [39]: > 50 µg/mL; IC50, pseudovirus neutralization [40]: 5 ng/mL; IC50, pseudovirus neutralization [41]: 9 ng/mL; IC50, pseudovirus neutralization [42]: 8 ng/mL; IC50, pseudovirus neutralization [43]: > 50 µg/mL
